Results published in US6861578B1, “Method for plant protection against insects or nematodes by transformation with a nucleic acid encoding equistatin” (Plant Research International B.V., priority 1997, dated 2005).

Assays:
[1] = molecular target: T1, cathepsin D (Homo sapiens, UniProt P07339); experiment: Incubation of equistatin with cathepsin D, reverse-phase HPLC (substrate test); format: biochemical; conditions: incubated in different molar concentrations and times
Experimental: In panel A the equistatin was incubated with cathepsin D in a final molar concentration of 2:1, and in panel B the equistatin was fragmented using 1% (w/w) β-trypsin. Identities of peaks were based on the N-terminal sequences.
Equistatin was isolated from sea anemone A. equina by a procedure that was described previously utilizing its inhibitory activity toward cysteine proteinase, papain (Lenarcic et al. (1997) J. Biol. Chem. 272: 13899). Besides cysteine proteinases, equistatin was screened for the inhibition of two other classes of proteinases, aspartic proteinases (cathepsin D) and serine proteinase (trypsin). […] 500 μg equistatin was incubated with 5 μg of β-trypsin in 0.5 ml of 0.1 M Tris/HCl buffer pH 8.0, for 40 min at 37° C. Reaction was stopped by the addition of trifluoroacetic acid. The 9-trypsin digest of equistatin was separated by high performance liquid chromatography (Milton Roy Co.) using a reverse phase Vydac C18 column equilibrated with 5% acetonicril containing 0.1% (v/v) trifluoroacetic acid. Elution was performed using a linear gradient of 80% (v/v) acetonitrile containing 0.1% (v/v) trifluoroacetic acid. Absorbance was monitored at 215 nm. Two major peaks were obtained on the reverse-phase. HPLC (FIG. 9B). The molecular weights, estimated by the SDS PAGE under non-reducing conditions, were about 7,000 and 14,000 (FIG. 10). […]

[2] = molecular target: T1, cathepsin D; experiment: Cathepsin D inhibition, steady-state hydrolysis of chromophoric substrate; active site titration; format: biochemical
Experimental: Residual activity is expressed as percent of control activity in samples containing no inhibitor.
The kinetics of binding of equistatin to cathepsin D was performing using a synthetic substrate which contains a chromophore, such as a nitrophenylalanine residue, in the P1′ position. The assay sensitivity, afforded by H-Pro-Thr-Glu-Phe*Nph-Arg-Leu-OH (SEQ ID NO:8) as substrate, alowed us to use 6.4 nM concentration of the enzyme as a minimal concentration in the test.

[3] = molecular target: T2, papain (Carica papaya, UniProt P00784); experiment: Stoichiometry and inhibition constant of recombinant equistatin with papain (Z-Phe-Arg-pNA, microtiterplate); format: biochemical
T2 sequence (P00784 134-345): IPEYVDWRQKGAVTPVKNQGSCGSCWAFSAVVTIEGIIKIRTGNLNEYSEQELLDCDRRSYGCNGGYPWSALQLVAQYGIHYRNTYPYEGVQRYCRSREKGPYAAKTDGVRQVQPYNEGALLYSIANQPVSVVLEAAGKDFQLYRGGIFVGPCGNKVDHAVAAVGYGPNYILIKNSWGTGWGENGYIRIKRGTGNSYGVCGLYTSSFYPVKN
Experimental: In a microtiterplate 20 μl papain solution (a fresh solution of 1 mg/ml (Sigma) in MES buffer titrated with E-64 to determine the active fraction, usually 17%) is combined with 0-80 μl of known protein concentration. MES buffer (50 mM MES, pH 6.5; 0.6 mg/ml L-cysteine; 1 mg/ml BSA fraction V) is added to a final volume of 150 μl. The mixture is incubated for 30 min at room temperature and subsequently 50 μl of substrate solution (60 μl of 15 mg/ml Z-Phe-Arg-pNA dissolved in methanol is diluted in 940 μl MES buffer before use). The plate is immediately placed in the nicrotiterplate reader and measured at 405 nm. Readings up to an OD600 of 0.3 are linear. Rates of change are used to determine the activity with increasing amounts of inhibitor. Results are graphically represented and at stoichiometric concentrations the amount of dissociated complex is determined to determine the apparent equilibrium dissociation constant (Ki). […] The apparent equilibrium dissociation constant for papain was estimated to be 0.6 nM in agreement with the data published for the purified protein (Lenarcic et al. (1997) J. Biol. Chem. 272: 13899-13903.

[4] = system: amino-peptidase activity of Colorado potato beetle larval gut extracts; experiment: Amino-peptidase activity of Colorado potato beetle gut extract, L-Arg-pNA; format: biochemical, Leptinotarsa decemlineata
Text: Guts of final instar Colorado potato beetle larvae reared on methyl jasmonate induced plants were isolated and extracted essentially as described (Bolter and Jongsma, J. Insect Physiol. 41: 1071-1078). In these gut extracts the proteases that are sensitive to the protease inhibitors of potato are already complexed. The residual protease activity is composed of potato protease-inhibitor-insensitive proteases which were induced in response to the methyl jasmonate induced potato inhibitors. These proteases are the proteases that render the beetle larvae insensitive to protease inhibitor defense of the potato plant. Wle tested a broad range of different cysteisie protease inhibitors for activity specifically against these induced potato protease inhibitor-insensitive cysteine protesses. Nearly all of these inhibitors were purified at the Jozef Stefan Institute in Slovenia. Testing their potential against Colorado potato beetle was done using both general protein substrates (azocasein, table 2) as well as specific synthetic substrates (L-Arg-pNA, table 3; pGlu-Phe-Leu-pNA, table 4; Z-Phe-Arg-pNA, table 5; Z-Arg-Arg-pNA, table 6). In specific cases inhibitors were tested at two concentrations, eauimolar and in excess to the protease, in order to obtain an indication of the tightness of the complex. […] Importantly, this class of inhibitors was capable of inhibiting nearly all general cysteine protease activity. The equistatin peptide molecule and a functional derivative thereof were not very active against the aminopeptidase-like cysteine protease activity. […] The best combination of inhibitors for full toxicity against the Colorado potato beetle would therefore be a combination of equistatin or p41 invariant chain fragment and stefin-like inhibitors.

T1 sequence (P07339 65-412, species assumed): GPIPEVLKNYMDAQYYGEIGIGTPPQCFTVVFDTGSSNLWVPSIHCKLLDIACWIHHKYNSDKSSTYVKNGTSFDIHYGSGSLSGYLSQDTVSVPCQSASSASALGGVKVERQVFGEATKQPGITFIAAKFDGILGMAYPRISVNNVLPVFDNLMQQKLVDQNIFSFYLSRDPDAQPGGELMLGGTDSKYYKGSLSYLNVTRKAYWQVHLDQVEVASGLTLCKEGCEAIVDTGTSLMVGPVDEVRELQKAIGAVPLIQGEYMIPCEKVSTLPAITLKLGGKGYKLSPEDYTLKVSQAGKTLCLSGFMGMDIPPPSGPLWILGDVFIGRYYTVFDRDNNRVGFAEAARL

B1: equistatin: cysteine/aspartic protease inhibitor from sea anemone Actinia equina with three type I repeated thyroglobulin domains; purified or recombinant from E. coli (protein)
chain: SLTKCQQLQASANSGLIGTYVPQCKETGEFEEKQCWGSTGYCWCVDEDGKEILGTKIRGSPDCSRRKAALTLCQMMQAIIVNVPGWCGPPSCKADGSFDEVQCCASNGECYCVDKKGKELEGTRQQGRPTCERHLSECEEARIKAHSNSLRVEMFVPECLEDGSYNPVQCWPSTGYCWCVDEGGVKVPGSDVRFKRPTC
modifications: left off: large carriers; small tags and cut ends
notes: purified or recombinant from E. coli
degradation of equistatin by cathepsin D [1]: No degradation products were observed
Ki ([2]; cathepsin D, steady state velocity, chromophoric substrate): 0.3 nM
equistatin needed for the saturation of 1 mol of cathepsin D ([2]; titration of cathepsin D with equistatin (FIG. 12)): 1 mol
molecules of papain inhibited by one molecule of equistatin [3]: approximately 1 molecule
% of residual activity, equimolar ([4]; equimolar): 85%
% of residual activity, excess inhibitor ([4]; excess inhibitor): 75%
